Data from the Immune Epitope Database (IEDB).

Tests used:
Assay in all cases: IEDB peptide-MHC binding, purified MHC/competitive/radioactivity; filed as Kd, often an IC50 or EC50 that approximates it; ≥ and ≤ were set here for values at or beyond the usual limits of such assays
HLA-A*33:01 = biological target: HLA-A*33:01
HLA-A*11:01 = biological target: HLA-A*11:01
HLA-A*03:01 = biological target: HLA-A*03:01
HLA-A*31:01 = biological target: HLA-A*31:01
HLA-A*68:01 = biological target: HLA-A*68:01
[1] = source organism: Vaccinia virus WR
[2] = source organism: Dengue virus 2 Jamaica/1409/1983
[3] = source organism: SARS coronavirus Tor2
[4] = source organism: Dengue virus 3 Martinique/1243/1999
[5] = source organism: Dengue virus 1 Brazil/97-11/1997
[6] = source organism: Mammarenavirus brazilense
[7] = source organism: Dengue virus 4 Dominica/814669/1981
[8] = source organism: Mammarenavirus whitewaterense

Row | Sequence | Kd (HLA-A*33:01; [1]) [µM] | Kd (HLA-A*11:01; [1]) [µM] | Kd (HLA-A*03:01; [1]) [µM] | Kd (HLA-A*31:01; [1]) [µM] | Kd (HLA-A*68:01; [1]) [µM] | other results
1 | KFAEESYTYY | ≥ 42.1 | 10.2 | 4.86 | ≥ 21.7 | 1.13 | –
2 | SLRPQPTELK | – | – | – | – | – | Kd (HLA-A*03:01; [2]): 0.00301 µM
3 | SQILPDPLK | – | – | – | – | – | Kd (HLA-A*33:01; [3]): ≥ 55.9 µM; Kd (HLA-A*11:01; [3]): 4.55 µM; Kd (HLA-A*03:01; [3]): 17.4 µM; Kd (HLA-A*31:01; [3]): ≥ 25.3 µM; Kd (HLA-A*68:01; [3]): ≥ 50.4 µM
4 | KLITEWCCR | – | – | – | – | – | Kd (HLA-A*31:01; [2]): 0.0103 µM
5 | FLISGKGIGK | – | – | – | – | – | Kd (HLA-A*03:01; [4]): 0.0532 µM
6 | LLDSIKMIY | ≥ 48.6 | 17.8 | 4.73 | 3.35 | 0.722 | –
7 | MTSRMLLNR | – | – | – | – | – | Kd (HLA-A*33:01; [5]): 0.00247 µM; Kd (HLA-A*11:01; [5]): 0.0404 µM; Kd (HLA-A*31:01; [5]): ≥ 23.6 µM; Kd (HLA-A*68:01; [5]): 0.0546 µM
8 | VSILLSSLLK | – | – | – | – | – | Kd (HLA-A*11:01; [5]): 0.0492 µM; Kd (HLA-A*03:01; [5]): 0.0109 µM
9 | KLYEEPLSK | – | – | – | – | – | Kd (HLA-A*03:01; source organism: Homo sapiens): 0.0025 µM
10 | GLLSGQGPMK | – | – | – | – | – | Kd (HLA-A*03:01; [5]): 0.00262 µM
11 | VTLDFTKFH | – | – | – | – | – | Kd (HLA-A*33:01; [6]): ≥ 57.2 µM; Kd (HLA-A*11:01; [6]): 0.208 µM; Kd (HLA-A*03:01; [6]): 7.44 µM; Kd (HLA-A*31:01; [6]): 13.1 µM; Kd (HLA-A*68:01; [6]): ≥ 28.4 µM
12 | KVVKKLSVIR | 3.62 | 0.916 | 5.12 | 0.0563 | 0.482 | –
13 | SLRTTTVTGK | – | – | – | – | – | Kd (HLA-A*03:01; [5]): 0.00638 µM
14 | LMIVAKHER | – | – | – | – | – | Kd (HLA-A*31:01; [7]): 0.0498 µM
15 | IMKNTTNTRR | – | – | – | – | – | Kd (HLA-A*31:01; [2]): 0.0139 µM
16 | GFLSRNKKPR | – | – | – | – | – | Kd (HLA-A*33:01; [5]): 1.77 µM
17 | GVFKNPCTSH | – | – | – | – | – | Kd (HLA-A*33:01; [8]): ≥ 70 µM; Kd (HLA-A*11:01; [8]): 2.69 µM; Kd (HLA-A*03:01; [8]): 6.29 µM; Kd (HLA-A*31:01; [8]): ≥ 30.1 µM; Kd (HLA-A*68:01; [8]): ≥ 26 µM
18 | RFVKFNDYRK | 1.83 | 0.429 | 0.516 | 0.0373 | 0.0511 | –
19 | SSESLVYGIR | 0.623 | 0.476 | ≥ 34.8 | 0.78 | 0.475 | –
20 | VVMDYLDNLK | – | – | – | – | – | Kd (HLA-A*33:01; [3]): ≥ 46.9 µM; Kd (HLA-A*11:01; [3]): 1.96 µM; Kd (HLA-A*03:01; [3]): 6.52 µM; Kd (HLA-A*31:01; [3]): ≥ 36.6 µM; Kd (HLA-A*68:01; [3]): 6.73 µM
21 | MINYYNEMSR | 0.406 | 0.0533 | 0.143 | 0.0959 | 0.0134 | –
22 | RSTAIKVTK | 11.2 | 0.00677 | 0.214 | 0.00126 | 0.0139 | –
23 | RVSTVQQLTK | – | – | – | – | – | Kd (HLA-A*11:01; [2]): 0.204 µM; Kd (HLA-A*03:01; [2]): 0.0175 µM

Row | Sequence | Kd (HLA-A*33:01; [1]) [µM] | Kd (HLA-A*11:01; [1]) [µM] | Kd (HLA-A*03:01; [1]) [µM] | Kd (HLA-A*31:01; [1]) [µM] | Kd (HLA-A*68:01; [1]) [µM] | other results
24 | DAVRAFLLR | 0.0234 | 13.7 | ≥ 34.4 | 0.484 | 0.000831 | –
25 | SNMLSIINK | – | – | – | – | – | Kd (HLA-A*11:01; [4]): 0.116 µM
26 | GTMKIKDEER | – | – | – | – | – | Kd (HLA-A*68:01; [5]): 0.165 µM
27 | LSTLNFNNLR | 1.53 | 0.207 | 3.74 | 0.0368 | 0.012 | –
28 | NFFVFIHMVR | 0.00799 | 0.718 | 0.174 | 0.0186 | 0.000996 | –
29 | VSLVKKNKK | ≥ 77.7 | 2.28 | ≥ 58.5 | 0.856 | ≥ 27.4 | –
30 | TLDDLAIKQY | ≥ 70 | 2.92 | 18.4 | ≥ 70 | ≥ 62.4 | –
31 | KSNILMWNK | 13.7 | 0.00225 | 0.0275 | 0.00101 | 2.87 | –
32 | NTPVSMTYLY | ≥ 70 | 1.4 | ≥ 45.5 | ≥ 70 | 0.415 | –
33 | TSFGPLVRK | – | – | – | – | – | Kd (HLA-A*33:01; [3]): 5.25 µM; Kd (HLA-A*11:01; [3]): 0.00021 µM; Kd (HLA-A*03:01; [3]): 0.00439 µM; Kd (HLA-A*31:01; [3]): 0.452 µM; Kd (HLA-A*68:01; [3]): 0.00704 µM
34 | FIMAYVNQAH | – | – | – | – | – | Kd (HLA-A*33:01; [6]): 14.5 µM; Kd (HLA-A*11:01; [6]): ≥ 42.7 µM; Kd (HLA-A*03:01; [6]): ≥ 20.3 µM; Kd (HLA-A*31:01; [6]): ≥ 30.2 µM; Kd (HLA-A*68:01; [6]): 3.45 µM
35 | MWQLMYFHRR | – | – | – | – | – | Kd (HLA-A*33:01; [5]): 0.0113 µM; Kd (HLA-A*31:01; [5]): ≥ 25.7 µM
36 | KLGDKGSPYY | ≥ 39.4 | 3.57 | 0.00248 | ≥ 23.1 | 5.08 | –
37 | PSILPSLIK | ≥ 77.7 | 0.383 | 1.85 | ≥ 36.9 | ≥ 40.9 | –
38 | RAFDIYNEK | – | – | – | – | – | Kd (HLA-A*33:01; [3]): ≥ 77.7 µM; Kd (HLA-A*11:01; [3]): 0.00358 µM; Kd (HLA-A*03:01; [3]): 0.0108 µM; Kd (HLA-A*31:01; [3]): 0.106 µM; Kd (HLA-A*68:01; [3]): 0.378 µM
39 | LMTLMKGASR | – | – | – | – | – | Kd (HLA-A*31:01; [7]): 0.0726 µM
40 | AIKILTGFR | – | – | – | – | – | Kd (HLA-A*31:01; source organism: Dengue virus 4 Philippines/H241/1956): 0.0547 µM
41 | AMYYAVLSEY | 5.19 | 0.0898 | ≤ 0.001 | 2.85 | 0.982 | –
42 | RSNAILHNIY | ≥ 70 | 1.36 | 3.72 | 0.619 | 1.03 | –
43 | QILDNAAKY | ≥ 77.7 | 8.8 | ≥ 78 | ≥ 77.9 | ≥ 77.7 | –
44 | TTRMENLLWK | – | – | – | – | – | Kd (HLA-A*11:01; [4]): 0.103 µM; Kd (HLA-A*03:01; [4]): 0.102 µM
45 | VTGLFKDCSK | – | – | – | – | – | Kd (HLA-A*33:01; [3]): ≥ 57.1 µM; Kd (HLA-A*11:01; [3]): 4.74 µM; Kd (HLA-A*03:01; [3]): 4.67 µM; Kd (HLA-A*31:01; [3]): 5.12 µM; Kd (HLA-A*68:01; [3]): 10.3 µM
